Test: yeast display, Sf9 membrane polyspecificity reagent, FACS + sequencing; frameworks hold sequencing errors
Method in brief: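 In a synthetic yeast display library (Saccharomyces cerevisiae BJ5465), nanobody expression was induced with galactose for 36–48 hours. FACS gates were set low and high (top ~1%) using anti-HA fluorescence for expression and streptavidin fluorescence for binding of the Sf9 membrane reagent. Each polyreactivity label is drawn from the gate of origin.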
With “QVQLVESGGGLVQAGGSLRLSCAASGFTFAYNAMGWYRQAPGKETELVAAINSGGGRTYYADSVKGRFTISRDNAKNTVYLQMNSLKPEATAVYYCNAYPYKLDYDYWGQGTQVTVSS” the “polyreactivity (PSR sort gate)” value was “high polyreactivity”.
For “QVQLVESGGGLVQAGGSLRLSCAASGSTFRIYAMGWYRQAPGKDRELVAGITRRGGSTFYADSVKGRFTISRDNANNTVYLQMNSLKPEDTAVYYCAARFRGGMDYWGQGTQVTVSS”, the “polyreactivity (PSR sort gate)” value was “high polyreactivity”.
With “QVQLVESGGGLVQAGGSLRLSCAASGRTSYTYVMGWYRQAPGTERELVAAIRLSGGNTYYADSVKGRFTISRDNAKNTVYLQMNSLKPEDTAVYYCAAHYWRHRKAYGYWGQGTQVTVSS” the “polyreactivity (PSR sort gate)” value was “high polyreactivity”.
In the case of “QVQLVESGGGLVQAGGSLRLSCAASGLTFKRYAMGWYRQAPGTEREFVAAISAGGASTHYADSVKGRFTISRDNAKNTVYLQMNSLKPEDTAVYYCATDYRTFRPSFGYWGQGTQVTVSS”, the “polyreactivity (PSR sort gate)” value is reported as “low polyreactivity”.
For “QVQLVESGGGLVQAGGSLRVSCAASGSTFGYYAMGWYREAPGKEREFVAAINYGDGNTYYADSVKGRFTISRDNAKNTVYLQMNRLKPEDTAVYYCATYYWAPTGAHGGYGYWVQGTQVTVSS”, the “polyreactivity (PSR sort gate)” value was “low polyreactivity”.
With “QVQLVESGGGLVQAGGSLRLSCAASGIIFERYAMGWYRQAPGKERELVAAISKGGGSRTYYADSVQGRFTISRDTAKNTVYLQMNSLKPEDTAVYYCNADIWYGDMDYWGQGTQVTVSS” the “polyreactivity (PSR sort gate)” value was “high polyreactivity”.
In the case of “PVQLVESGGGLVQAGGTLRLSCDATGITFKLNAMGWYRQAPGKERELVAAITSTGGSTYYADSVKGRFTISRDNAKNTVYLQMNSLNPEDTAVYYCAADRYSYIFYYYWSYDYWGQCTQVTVSS”, the “polyreactivity (PSR sort gate)” value is reported as “high polyreactivity”.
For “QVQLVESGGGLVQAGGSLRLSCAASGSIFSRYAMGWYIQAPGKERELVAAISTGGGRTYYADSVKGRFTISRDNAKNTVYLKMNSLKPEDTAVYYCAAPQQQSWTYDGRYGYWGQGTQVTVSS”, the “polyreactivity (PSR sort gate)” value was “high polyreactivity”.
For “QVQLVESGGGLVQAGGSLRLSCAASGFTFKVYNAMGWYRQAPGKERELVAAISSSVGGTYYADSVKGRFTISRDYAKNTVYLQMNSLKPEDTAVYYCATDDFTYVVAKDGDYWGQGTQVTVSS”, the “polyreactivity (PSR sort gate)” value was “low polyreactivity”.
With “QDQLVESGGGLVQSGGSLRLSCAASGFIFPHYAMGWYRPAPGKERELVAAISKSGDSTYYADSVKGRFSISRDNAKNTVYLQMNSLKPEDTAVYYCARRGRSLLWKYDYWRQGTQVTVSS” the “polyreactivity (PSR sort gate)” value was “low polyreactivity”.
With “QVQLVESGGGLVQAGGSLRLSCAASGLTFRPNAMGWYRQAPGKERELVAAISWSGRTYYADSVKGRFTISRDNAKNTVYLQMNILKPEDTAVYYCAARGYSDRYGYWGQGTQVTVSS” the “polyreactivity (PSR sort gate)” value was “high polyreactivity”.
In the case of “QVQLVESGGGLVQAGGSLRLSCAASGNIFYIYAMGWYRQAPGKERELVASISGRGGRTYYADSVKGRFTISRDNAKNTVYLQMNSLKPEDTAVYYCAADGYRTYSEMDYWGQGTQVTVSS”, the “polyreactivity (PSR sort gate)” value is reported as “high polyreactivity”.
In the case of “QVQLVESGGGLVQAGGSLRLSCAASGSIFTYYAMGWYRQAPGKERELVAAISLDGGSTYYADSVKGRFTISRDNAKNTVYLQMNSLKPEDTAVYYCAADYRFIPYTYLYDYWGQGTQVTVSS”, the “polyreactivity (PSR sort gate)” value is reported as “low polyreactivity”.
With “QVQLEESGGGLVQAGGSLRLSCAASGSTIRYNAMGWSRQAPGKERELVAGISVRGGSTYYADSVKGRFTISRDNAKNTVYLQMNSLKPEDTAVYYCATRSPYSYPNLYYWGQGTQVTVSS” the “polyreactivity (PSR sort gate)” value was “high polyreactivity”.
With “QVQLVESGGGLVQAGGSLRLSCAASGFIFRNYAMGWYRQAPGKERELVAAIDSSGGSTYYADSVKGRFTISRDNAKNTVYLQMNSLKPEDTAVYYCAAESYYYQYEYWGQGTQVTVSS” the “polyreactivity (PSR sort gate)” value was “high polyreactivity”.
For “QVQLEESGGGLVQAGGSLRLSCAASGRTFVRYAMGWYRQATGNERELVAAFSLRGGRTYYADSVKGRFTISRDNAKNTVYLQMNSLKPEDTAVYYCNSRYYIQREYDYWGQGNQVTVSS”, the “polyreactivity (PSR sort gate)” value was “high polyreactivity”.
For “QVQLVESGGGLVQSGVSLRLSCAASGITFYSIAIGWYRPATGKEMELVAANTRRGGSKLNADSVKGRFTNSRDNSKNTVYLQMNSLKPEDTAVYFCAADVPWWSYSDDYWGQGTKVTVSS”, the “polyreactivity (PSR sort gate)” value was “high polyreactivity”.
In the case of “QDQLVESGRGLVQAGGSLRLSCAASGSINATNAMGWYRQAPGKERELVPSISYSVSRTYYADSVKGRFTISRDNAKNTVYFQMNSLTPEDTAVYYCAVRQVNWFGIGYEDDYCGQGTQVTVSS”, the “polyreactivity (PSR sort gate)” value is reported as “low polyreactivity”.
In the case of “QVQLVESGGGLVQAGGSLRLSCAASGIFAWNAMGWYRQAPGKERELVAAISWSGGSTYADSVKGRFTISRDNAKNTVYLQMNSLKPEDTAVYYCAKVSSLTSKSDYSGQGTQVTVSS”, the “polyreactivity (PSR sort gate)” value is reported as “low polyreactivity”.
For “QVQLVESGGGLVQAGGSLRLSCAASGRIFTNNAMGWYRQEPGKERELVAAISRSGGRTYYADSVKGRFTISRDIAKNTVYLQMNSLKPEDTAVYYCAAVHLFYGYNSPFTMDYWGQGTQVTVSS”, the “polyreactivity (PSR sort gate)” value was “high polyreactivity”.
In the case of “QVQLVESGGGLVQAGGSLRLSCAASGFTFTYYTMGWYRQAPGKESELVAAISWSGGRTYYADSVKGRFTISRDNAKNTVYLQMNSLKPEDTAVYYCAAVYSSYYSSSYGYWGQGTQVTVSS”, the “polyreactivity (PSR sort gate)” value is reported as “high polyreactivity”.
In the case of “QVQLVESGGGLVQAGGSLRLSCAASGSTFYLYAKGWYRQAPGKEREMVAAITGSGSRTYYADSVKGRFTISRDNAKNTVYLQMHSLNPEDTAVYYCAAKYGWQGGRGRDYWGQGTQVTVSS”, the “polyreactivity (PSR sort gate)” value is reported as “high polyreactivity”.
With “QVQLVESGGGLVQAGGSLRLSCAASGRTFGKNAMGWYRQAPGKERELVAAISGSGGSTYYADSVKGRFTISRDNAKNTVSLQMNSLKPEDTADYYCAKSYYGKYYPSDYWGQGTQVTVSS” the “polyreactivity (PSR sort gate)” value was “low polyreactivity”.
For “QVQLVESGGGLVQAGGSLRLSCAASGSTFGYYAMGWYRQAPGKERELVAVITRGGSTYYADSVKGRFTISRDNAKNTVYLQLNSLKPEDTAVYYCNARVQAVHYGYWGQGTQVTVSS”, the “polyreactivity (PSR sort gate)” value was “high polyreactivity”.
With “QVQLVESGGCLVQAGGSLSLSCAASGSTFPYPYTIGWYRQAPGKERELVAVISRTGGSTFYADSVKGRFTISRDNAKNTVFLQINSLKPEDTAVYYCARQRYEYRTTYYYWGLGTQVTVSS” the “polyreactivity (PSR sort gate)” value was “high polyreactivity”.
With “QVQLVESGGGLVQAGGSLRLSCAASGRIFRRYAMGWYRQAPGKERELVAVISRGGSTHYADSVKGRFTISRDNAKNTVYLQMNSLKPEDTAVYYCNAVVSVYTKDLDYWGQGTQVTVSS” the “polyreactivity (PSR sort gate)” value was “high polyreactivity”.
In the case of “QVQLVESGGGLVQAGGSLRLSCAASGSTIPSYAMGWYRQAPGKERELVASITYSDGTTRYADSVKGRFTISRDNAMNPVYFQMNSLKPEDSAVYYCNAVYYREGMDYWGQGTQVTVSS”, the “polyreactivity (PSR sort gate)” value is reported as “low polyreactivity”.
With “QVQLVESGGGLVQAGGSLRLSCAASGFTFYPYTMGWYRQAPGKERELVAAISSSGGSTYYADSVKGRFTISRDNAMNTVYLQMNSLKPEDTAVYYCATRSWGPYYYGYNHWGQGSQVTVSS” the “polyreactivity (PSR sort gate)” value was “high polyreactivity”.
For “QVQLVESGGGLVQAGGSLRLSCAASGFTFKYYAMGWYRQAPGKERELVATITRSGGNTYYADSVKGRFTISRDNAKNTVYLQMNSLKPEDTAVYYCNTRRPGKYDYWGQGTQVTVSS”, the “polyreactivity (PSR sort gate)” value was “high polyreactivity”.
With “QVQLVESGGGLVQAGGSLRLSCAASGSTFGEYAMGWYRQAPGKERELVASITFSAGSTDYADSVKGRFTISRDNAKNTVYLQMNSLKPEDTAVYYCAADGWWPWEYDYWGQGTQVTVSS” the “polyreactivity (PSR sort gate)” value was “low polyreactivity”.
For “QVQLVESGGGLVQAGGSLRLSCAASGFIFTPYAMGWYRQAPGKERELVAAISWIGGRTYYADSVKGRFTISRDNAKNTVYLQMHSLKPEDTAVYYCNARTHGWPYSRYYYWGQGTQVTVSS”, the “polyreactivity (PSR sort gate)” value was “high polyreactivity”.
In the case of “QVQLVESGGGLVQAGGSLRLSFAASGNIFVYYAMGWYRQAPGKVRELVAAISFRGGTTYYADSVKGRFTISRDNAKNTVYLQMNSLKPEDTAVYYCAARTMPRVSRKTFGYWGQGTQVTVSS”, the “polyreactivity (PSR sort gate)” value is reported as “low polyreactivity”.
With “QVQLVESRGGLVQAGGSLRLSCAASGSTLYQYAMGWYRQAPGKERELVAAITKSGGRTYYADSVKGRFTISRDNAKNTVYLHMNSLKPEDTAVYYCNVVRGSYSSGGDYWGQGTQVTVSS” the “polyreactivity (PSR sort gate)” value was “high polyreactivity”.
For “QVQLVESGGGLVQAGGSLRLRCAASGSIFVSNTMGWYRQAPGKEREMVASIRETAGSTNYADSVKGRFTISRDYAKNTVYLQMNSLKPEDTEVYYCAARYSPTRYHYGYWGQGTQVTVSS”, the “polyreactivity (PSR sort gate)” value was “low polyreactivity”.
In the case of “QVQLVESGGGLVQAGGSLRLSCAASGFTFYRYAMGWYRQAPGKERELVASISWRGGNTYYADSVKGRFTISRDNAKNTVYLQMNSLKPEDTAVYYCAAGRSRIPSLLDYWGQGTQVTVSS”, the “polyreactivity (PSR sort gate)” value is reported as “high polyreactivity”.
With “QVQLVESGGGLVQAGGSLRLICAASGSIFDWYDMGWYRQAPGKERELVAAITTGGITNYADSVKGRFTFSRDNAKNSVYLQMNSLKPEDTAVYYCNADFSVEFDYWGQGTQVNVSS” the “polyreactivity (PSR sort gate)” value was “low polyreactivity”.
For “QVQLVESGGGLVQAGGRLRLSCAASGRIFVHNAMGWYRQAPGKERELVAAISQNGGRTYYADSVKGRFTISRDNAKNTVYLQLNSLKPEDTAVYYCAAGQARAGLIGGYWGQGTQVTVSS”, the “polyreactivity (PSR sort gate)” value was “high polyreactivity”.
In the case of “QVQLVESGGGLVQAGGSLRLSCAASGRTFGVNAMGWYRQAPGKERELVARIRVSGGRTYYADSVKGLFTISRDNAKNTVYLQMNSLKPEDTAVYYCNAGYTYNRVIWPYYYWGQGTQVTVSS”, the “polyreactivity (PSR sort gate)” value is reported as “high polyreactivity”.
With “QVQLVESGGGLVQAGGSLRLSCAASGIIFTRYAMGWYRQAPGKERELVAAITTSGGRTYYADSVKGRFTISRDNAKNTVYLQMNSLKPEDTAVYYCAVSGHARYDYWGQGTQVTVSS” the “polyreactivity (PSR sort gate)” value was “high polyreactivity”.
For “QVQLVESGGGLVQAGGSLRLSCAASGRIFKWNAMGWYRQAPGKERELVAAITYRDDTTYYADSVKGRFTISRDNAKNTVYLQMNSLKPEDTAVYYCNAAWRPCRPFRGFTEGEYDYWGQGTQVTVSS”, the “polyreactivity (PSR sort gate)” value was “low polyreactivity”.
For “QVQLVESGGGLVQAGGSLRLSCAASGGIFWNYAMGWYRQAPGKERELVAVINTGGRTYYADSVKGRFTISRDNAKYTVYLQMNSLKPEDTAVYYCAAKDFTIHYDYWGQGTQVTVSS”, the “polyreactivity (PSR sort gate)” value was “high polyreactivity”.
For “QVQLVESGGGLVQAGGSLRLSCAASGIIFPGKAMGWYRQAPGKERELVAAISSGGNTKYADSVKGRFTISRDNAKNTGYLQMNSLNPEDTAVYYCAAAARARNPSYGRNYWGQGTQVTVSS”, the “polyreactivity (PSR sort gate)” value was “high polyreactivity”.
For “QVQLVESGGGLVQAGGSLRLSCAASGRTFPNYVIGWYRQATGKERELVAAINSGGRTNYADSVKGRFTISRDNAKNTVYLQMNRLKQEDTAFYFCTKRGHPARLGYYYWGQGTQVTVSS”, the “polyreactivity (PSR sort gate)” value was “low polyreactivity”.

Reference: the nanobody polyreactivity screen of Harvey et al. (2022)
